For eleven molecules, REVEAL 0 hrs (% of positive control signal), REVEAL 24 hours (% of positive control signal) and Stability index results are on record in patent US20190184007A1.

Sequences and labels used below:
T1: HLA DQA1*0101:DQB1*0501
T1 chain 1: not shown
T1 chain 2: not shown

T2: HLA DQA1*0102:DQB1*0602, P01920
T2 chain 1: not shown
T2 chain 2: not shown

B1: Peptide #4 (X181 NP fragment) (peptide)
peptide: LILYDKEEMRRIWRQ
modifications: not checked
B2: Peptide #5 (Common CP sequence) (peptide)
peptide: VGKMIGGIGRFYIQM
modifications: not checked
B3: Peptide #6 (Common CP sequence) (peptide)
peptide: SGAAGAAVKGVGTMV
modifications: not checked
B4: Peptide #13 (Reverse of #10) (peptide)
peptide: LTVAAWSVKTSPLNM
modifications: not checked
B5: Peptide #1 (X179-A NP fragment) (peptide)
peptide: RELILYDKEEIRRIWRQANNG
modifications: not checked
B6: Peptide #18 (Hemagglutinin fragment) (peptide)
peptide: ALSRGFGSGIITSNA
modifications: not checked
B7: Peptide #16 (Hemagglutinin fragment) (peptide)
peptide: AMERNAGSGIIISDT
modifications: not checked
B8: Peptide #17 (Hemagglutinin fragment) (peptide)
peptide: ALNRGSGSGIITSDA
modifications: not checked
B9: Peptide #8 (Common CP sequence) (peptide)
peptide: IDPFKLLQNSQVVSL
modifications: not checked
B10: Peptide #7 (Common CP sequence) (peptide)
peptide: EKATNPIVPSFDMSN
modifications: not checked
B11: Peptide #2 (X181 NP fragment) (peptide)
peptide: RELILYDKEEMRRIWRQANNG
modifications: not checked

One experiment addresses T1, HLA DQA1*0101:DQB1*0501. The experiment is described as follows: REVEAL class II binding assay (cell-free).
B1: the REVEAL 0 hrs (% of positive control signal) came out at 0.1, the REVEAL 24 hours (% of positive control signal) amounted to 0.1 and the Stability index was found to be 0.1.

For the molecule B2, the REVEAL 0 hrs (% of positive control signal) worked out at 43.6, the REVEAL 24 hours (% of positive control signal) is 13.9 and the Stability index is 6.4.

Molecule B3 displayed an REVEAL 0 hrs (% of positive control signal) of 0, an REVEAL 24 hours (% of positive control signal) of 0 and a Stability index of 0.

With B4, the REVEAL 0 hrs (% of positive control signal) was found to be 0.3, the REVEAL 24 hours (% of positive control signal) amounted to 0.3 and the Stability index is 0.4.

B5: the REVEAL 0 hrs (% of positive control signal) amounted to 27.8 and the REVEAL 24 hours (% of positive control signal) was 7.4.

On to B6, for which the REVEAL 0 hrs (% of positive control signal) amounted to 0, the REVEAL 24 hours (% of positive control signal) amounted to 0 and the Stability index was found to be 0.

Consider B7, for which the REVEAL 0 hrs (% of positive control signal) is 0.1, the REVEAL 24 hours (% of positive control signal) was 0.1 and the Stability index came out at 0.1.

The molecule B8 yielded an REVEAL 0 hrs (% of positive control signal) of 0, an REVEAL 24 hours (% of positive control signal) of 0 and a Stability index of 0.

With B9, the REVEAL 0 hrs (% of positive control signal) was found to be 0, the REVEAL 24 hours (% of positive control signal) came out at 0 and the Stability index was 0.

Regarding B10, the REVEAL 0 hrs (% of positive control signal) is 0, the REVEAL 24 hours (% of positive control signal) was 0 and the Stability index was determined as 0.

Molecule B11 gave an REVEAL 0 hrs (% of positive control signal) of 1.1 and an REVEAL 24 hours (% of positive control signal) of 1.

For the next experiment, the target named is T2, HLA DQA1*0102:DQB1*0602, P01920. The experiment is described as follows: REVEAL class II binding assay (cell-free).
For B1, the REVEAL 0 hrs (% of positive control signal) is 0.5, the REVEAL 24 hours (% of positive control signal) amounted to 0.4 and the Stability index amounted to 0.6.

The molecule B2 gave an REVEAL 0 hrs (% of positive control signal) of 77.3, an REVEAL 24 hours (% of positive control signal) of 52.3 and a Stability index of 33.

Regarding B3, the REVEAL 0 hrs (% of positive control signal) came to 0.1, the REVEAL 24 hours (% of positive control signal) stood at 0.1 and the Stability index was determined as 0.1.

B4 showed an REVEAL 0 hrs (% of positive control signal) of 0.9, an REVEAL 24 hours (% of positive control signal) of 0.4 and a Stability index of 0.2.

Molecule B5 returned an REVEAL 0 hrs (% of positive control signal) of 24.4, an REVEAL 24 hours (% of positive control signal) of 16.9 and a Stability index of 11.1.

With B6, the REVEAL 0 hrs (% of positive control signal) came to 0, the REVEAL 24 hours (% of positive control signal) is 0 and the Stability index was 0.

The molecule B7 displayed an REVEAL 0 hrs (% of positive control signal) of 0, an REVEAL 24 hours (% of positive control signal) of 0 and a Stability index of 0.

Consider B8, for which the REVEAL 0 hrs (% of positive control signal) is 0, the REVEAL 24 hours (% of positive control signal) came to 0 and the Stability index was determined as 0.

Take B9: the REVEAL 0 hrs (% of positive control signal) is 0.1, the REVEAL 24 hours (% of positive control signal) amounted to 0.1 and the Stability index was 0.1.

In turn, B10 registered an REVEAL 0 hrs (% of positive control signal) of 0, an REVEAL 24 hours (% of positive control signal) of 0 and a Stability index of 0.

Turning to B11, the REVEAL 24 hours (% of positive control signal) was found to be 0.5.
